Measured values taken from patent publication US20210347846A1.

Legend:
[1] = molecular target: transient receptor potential melastatin subfamily member 4 (TRPM4), mouse (mouse) (UniProt Q7TN37); experiment: co-immunoprecipitation with anti-TRPM4 antibody from cortical lysates of mice 2 h after i.p. injection of small-molecule compound P4 (40 mg/kg), against control mice
[2] = molecular target: transient receptor potential melastatin subfamily member 4 (TRPM4), mouse (mouse) (UniProt Q7TN37); experiment: co-immunoprecipitation with anti-TRPM4 antibody from cortical lysates of mice 6 h after i.p. injection of small-molecule compound P4 (40 mg/kg), against control mice

Sequence of UniProt Q7TN37 (Q7TN37 whole entry): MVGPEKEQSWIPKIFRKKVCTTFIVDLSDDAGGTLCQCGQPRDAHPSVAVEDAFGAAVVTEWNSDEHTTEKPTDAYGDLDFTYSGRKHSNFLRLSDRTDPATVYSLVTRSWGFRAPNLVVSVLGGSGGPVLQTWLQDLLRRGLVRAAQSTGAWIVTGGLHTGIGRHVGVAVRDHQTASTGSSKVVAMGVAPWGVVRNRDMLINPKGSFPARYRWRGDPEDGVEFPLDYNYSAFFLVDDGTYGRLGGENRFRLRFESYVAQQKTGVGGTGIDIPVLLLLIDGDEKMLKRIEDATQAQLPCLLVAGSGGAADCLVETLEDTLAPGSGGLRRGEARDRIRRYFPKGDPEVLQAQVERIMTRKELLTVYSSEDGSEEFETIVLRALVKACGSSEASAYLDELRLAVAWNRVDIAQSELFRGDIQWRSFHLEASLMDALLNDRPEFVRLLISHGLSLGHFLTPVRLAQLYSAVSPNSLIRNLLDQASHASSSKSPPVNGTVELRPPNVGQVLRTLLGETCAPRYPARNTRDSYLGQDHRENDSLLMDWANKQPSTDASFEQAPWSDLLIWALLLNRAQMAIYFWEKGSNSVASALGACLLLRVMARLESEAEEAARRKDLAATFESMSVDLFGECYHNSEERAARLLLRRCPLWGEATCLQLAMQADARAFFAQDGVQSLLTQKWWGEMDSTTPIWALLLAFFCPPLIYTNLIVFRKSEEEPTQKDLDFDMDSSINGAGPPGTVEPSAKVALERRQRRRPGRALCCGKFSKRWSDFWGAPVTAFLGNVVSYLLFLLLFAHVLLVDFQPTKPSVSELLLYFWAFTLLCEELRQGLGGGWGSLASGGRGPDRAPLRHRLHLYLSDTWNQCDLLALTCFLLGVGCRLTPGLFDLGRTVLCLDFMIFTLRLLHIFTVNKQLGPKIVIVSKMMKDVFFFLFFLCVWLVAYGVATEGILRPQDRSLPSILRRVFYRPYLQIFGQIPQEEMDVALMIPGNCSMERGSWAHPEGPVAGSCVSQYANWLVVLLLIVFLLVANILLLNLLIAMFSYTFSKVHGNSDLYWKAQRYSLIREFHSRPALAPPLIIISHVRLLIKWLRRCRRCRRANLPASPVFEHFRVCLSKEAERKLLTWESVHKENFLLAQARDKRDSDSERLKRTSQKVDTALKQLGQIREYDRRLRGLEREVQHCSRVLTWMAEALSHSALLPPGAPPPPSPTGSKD

reduction in NMDA receptor/TRPM4 complex formation [1]: 51% | reduction in NMDA receptor/TRPM4 complex formation [2]: 61%
Substance: GRIN2B subunit of the NMDA receptor, mouse (from UniProt Q01097 27-1482)
